Reference: paper PMC12246617, “Cryo-EM structures reveal the PP2A–B55α and Eya3 interaction that can be disrupted by a peptide inhibitor” (The Journal of Biological Chemistry, 2025)
One block for each binder: values may come before it.

Columns and labels:
[1] = molecular target: T1, FLAG-hEya3 (human Eya3, full length) (human, UniProt Q99504 1-573); experiment: mass photometry; proteins combined at a molar ratio of 1.5:1 in 20 mM Tris pH 8, 250 mM NaCl, 1 mM MnCl2, 0.5 mM TCEP, on ice, in the presence or absence of 25 μM B55i peptide; diluted to 100 nM before reading (Refeyn TwoMP); settings: both partners purified
T1 construct: Eya3, human, full length; cloned as FLAG-hEya3 in pCAG; only residues 65-86 are modelled in the structure; also called full-length Eya3; FLAG-Eya3
T1 sequence (looked up): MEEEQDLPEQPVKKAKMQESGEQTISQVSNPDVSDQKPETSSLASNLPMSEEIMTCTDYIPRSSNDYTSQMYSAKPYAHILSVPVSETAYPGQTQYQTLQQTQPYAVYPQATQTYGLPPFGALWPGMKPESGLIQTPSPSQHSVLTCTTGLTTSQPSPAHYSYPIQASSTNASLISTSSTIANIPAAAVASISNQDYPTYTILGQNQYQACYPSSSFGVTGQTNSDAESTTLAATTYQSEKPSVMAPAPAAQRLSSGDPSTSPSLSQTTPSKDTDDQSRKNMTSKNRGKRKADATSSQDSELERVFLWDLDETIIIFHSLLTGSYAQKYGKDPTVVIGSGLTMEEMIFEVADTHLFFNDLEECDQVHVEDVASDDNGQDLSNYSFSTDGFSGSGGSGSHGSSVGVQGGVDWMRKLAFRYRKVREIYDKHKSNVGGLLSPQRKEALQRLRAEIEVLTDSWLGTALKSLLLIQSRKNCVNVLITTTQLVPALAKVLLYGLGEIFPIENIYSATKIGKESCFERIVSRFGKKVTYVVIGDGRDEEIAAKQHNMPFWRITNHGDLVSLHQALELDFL

[2] = molecular target: T1, FLAG-hEya3 (human Eya3, full length); experiment: cryo-EM structure; PP2A–B55 + Eya3: 10 μM purified PP2A–B55 incubated with 15 μM full-length Eya3; 0.1% CHAPSO added before vitrification; 3.7 Å; settings: both partners purified

binding result [1]: binds
B1: His-hB55 (human PP2A regulatory subunit B55α) (natural protein, UniProt P63151 1-447, looked up)
chain: MAGAGGGNDIQWCFSQVKGAVDDDVAEADIISTVEFNHSGELLATGDKGGRVVIFQQEQENKIQSHSRGEYNVYSTFQSHEPEFDYLKSLEIEEKINKIRWLPQKNAAQFLLSTNDKTIKLWKISERDKRPEGYNLKEEDGRYRDPTTVTTLRVPVFRPMDLMVEASPRRIFANAHTYHINSISINSDYETYLSADDLRINLWHLEITDRSFNIVDIKPANMEELTEVITAAEFHPNSCNTFVYSSSKGTIRLCDMRASALCDRHSKLFEEPEDPSNRSFFSEIISSISDVKFSHSGRYMMTRDYLSVKIWDLNMENRPVETYQVHEYLRSKLCSLYENDCIFDKFECCWNGSDSVVMTGSYNNFFRMFDRNTKRDITLEASRENNKPRTVLKPRKVCASGKRKKDEISVDSLDFNKKILHTAWHPKENIIAVATTNNLYIFQDKVN
notes: PP2A regulatory B subunit B55α, human; cloned as His-hB55 in pFASTbac; Labelled on the His tag with RED-Tris-NTA dye for MST; also called His-B55; His-B55α; source: Hi5 insect cells, purified (nickel resin)

binding result [2]: binds
B2: FLAG-hB55 (B55α subunit of the PP2A–B55 holoenzyme purified from HEK293 FreeStyle cells) (natural protein, human)
chain: AGAGGGNDIQWCFSQVKGAVDDDVAEADIISTVEFNHSGELLATGDKGGRVVIFQQEQENKIQSHSRGEYNVYSTFQSHEPEFDYLKSLEIEEKINKIRWLPQKNAAQFLLSTNDKTIKLWKISERDKRPEGYNLKEEDGRYRDPTTVTTLRVPVFRPMDLMVEASPRRIFANAHTYHINSISINSDYETYLSADDLRINLWHLEITDRSFNIVDIKPANMEELTEVITAAEFHPNSCNTFVYSSSKGTIRLCDMRASALCDRHSKLFEEPEDPSNRSFFSEIISSISDVKFSHSGRYMMTRDYLSVKIWDLNMENRPVETYQVHEYLRSKLCSLYENDCIFDKFECCWNGSDSVVMTGSYNNFFRMFDRNTKRDITLEASRENNKPRTVLKPRKVCASGKRKKDEISVDSLDFNKKILHTAWHPKENIIAVATTNNLYIFQDKVN
notes: PP2A regulatory B subunit B55α, human; FLAG-hB55 in pCAG; The same chain as the first chain of m7, written alone for the contacts seen in the structures; also called FLAG-B55; B55 subunit
